Experimental findings from the supplement of paper PMC9942255 are described below.

Values joined by “and” are separate entries in the source; they are usually repeats but may differ in a detail not shown here. Equal entries are not always repeated.

This data set relates to Bacillus subtilis DB104 (SP-AmyQ fusion secretion). The data set can be described thus: AmyQ secretion efficiency, weighted average sort bin (1 = best secretion, 10 = worst) (bin number (weighted average, 1-10)); higher = lower secretion efficiency. The method in brief:
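Secretion score gives the read-frequency-weighted average bin number, normalised to beads per bin, with low-abundance sequences left out. A B. subtilis DB104 library expressing mature AmyQ fused to designed signal peptides, integrated at amyE, was encapsulated with fluorescein-starch at about 0.3 cells per ~65 nL alginate bead. Beads were grown about 13 h at room temperature, stained with nile red, and the occupied ones were sorted by large-particle flow cytometry into 10 equally populated bins by green/red fluorescence ratio before the amplicons from each bin were Illumina-sequenced.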

MKLAKRVSALTPSTTLAIEAKAKEL showed an AmyQ secretion efficiency of 7.23.

Take MKKKLAAGLTASAIVGTTLVVTPYEAATI: the AmyQ secretion efficiency was 5.36.

In turn, MRPVFPLILSAVLFLSCFDDDDDTEASASKR yielded an AmyQ secretion efficiency of 4.17.

Take MKKKQVMLALTAAAGLGLTALHSAPAAKSAPL: the AmyQ secretion efficiency was found to be 3.28.

For the sequence MFKKHTISLLIIFLLASAVLAKPIEPHTV, the AmyQ secretion efficiency turned out to be 7.19.

For the sequence MKKRLIGFLVLVPALIMSGITLIELNKK, the AmyQ secretion efficiency stood at 6.99.

Sequence MKKTSGTKYKCQSLILSVLAAPPSGAKAESV displayed an AmyQ secretion efficiency of 7.18.

MTTTAWFLPLVCVLLISGWLAPAASASAQTT displayed an AmyQ secretion efficiency of 2.09.

In the case of MTSLMMLSMLTVMIASLFIFSSQALAVQY, the AmyQ secretion efficiency was 3.98.

With MRQRKKAVFVIMISFLIATVNVNTAHAAID, the AmyQ secretion efficiency stood at 6.22.

As for MFNRLFRVCFLAALIMAFVFFIVFTLPNSVYAQKP, the AmyQ secretion efficiency amounted to 2.03.

The sequence MKKQIITATTAVVLGSTLFAGAAAVASAQSI came in with an AmyQ secretion efficiency of 3.9.

For the sequence MRSYIKVLTMCFLGLILFVPTQLADNS, the AmyQ secretion efficiency worked out at 5.96.

Turning to MMKVLMAFIICLSLILSVLAAPPSGAKAESV, the AmyQ secretion efficiency amounted to 5.

In turn, MGSSILLSSLAISALSLGLLVSAPTASFAAES gave an AmyQ secretion efficiency of 3.62.

For the sequence MKKGIIRFLLVSFVLFFALSTGITGVQRAPA, the AmyQ secretion efficiency came to 4.88.

MLCVMMLLFSAIASFPVSAQEKDQ yielded an AmyQ secretion efficiency of 5.69.

In turn, MKRTWNVCLIALLMVLLVAIFVTSPFHAEAKKP came in with an AmyQ secretion efficiency of 2.11.

For the sequence MKKAAAVLLSLGLVFGFSYGAGHVAEAATD, the AmyQ secretion efficiency came out at 3.51.

The sequence MKKKLAAGLTASAIVGTTLVVTPNEAATI had an AmyQ secretion efficiency of 6.96.

Turning to MKIRKILLSSALSFGMLISAVPALTAGT, the AmyQ secretion efficiency came to 4.42.

The sequence MKKWMATGSLAAAVLLCLMVPQQIQGASS displayed an AmyQ secretion efficiency of 2.83.

With MMTLCVMMLLFSAIASFPVSAQAKDQ, the AmyQ secretion efficiency is 7.11.

As to MKLSVKIAGVLTVAAAAMTAKMYATEKGN, the AmyQ secretion efficiency was 4.74.

As for MSGSSVMMLALTAAAGLGLTALHSAPAAKAAPL, the AmyQ secretion efficiency is 2.7.

MKKLLAAGIIGLLTVSIASPSFARRK yielded an AmyQ secretion efficiency of 6.83.

The sequence MRIFKKAVFVIMISFLIATVNVNTAHGAID yielded an AmyQ secretion efficiency of 5.43.

For MRNLTKTSLLLAGLCTAAIQMVFVTHASAEES, the AmyQ secretion efficiency is 3.32 and 3.1.

MTKKAWFLTLVCVLLISGWLAPAASASAQTT: the AmyQ secretion efficiency worked out at 1.56.

Regarding MRSKKLWISLLFALTLITLLVAFTMAFSNMSAQAAGK, the AmyQ secretion efficiency was 7.19.

In turn, MKKVMLATALFLGLTPAGANAASK had an AmyQ secretion efficiency of 2.96.

As to MKKQIITATTAVVLGSTLFAGANSAQSI, the AmyQ secretion efficiency turned out to be 3.08.

On to MRKSLITLGLASVIGTSSFLIPFTSKTASAETL, for which the AmyQ secretion efficiency was 2.73 and 5.9 and 4.16.

With MKNMSCKLVVSVTLFFSFLDSTPGAHAQNS, the AmyQ secretion efficiency stood at 1.96.

Consider MKKVLMAFIICLSLILSVLAAPPSGGKAESV, for which the AmyQ secretion efficiency amounted to 5.

For the sequence MKVLLSALLLLLFAFEPSASEKKL, the AmyQ secretion efficiency worked out at 5.89.

MKRIRIPMTLALGAALTIAPLSFYSAEEN registered an AmyQ secretion efficiency of 5.14.

Sequence MNLRKILLSSALSLGMLEEEDEEVLATSS yielded an AmyQ secretion efficiency of 4.45.

For MIKKLAAGLTASAIVGTTLVVTPAEAATI, the AmyQ secretion efficiency amounted to 2.3.

The sequence MKRSIFITCLLITLLTMGGMIASPASAAGT registered an AmyQ secretion efficiency of 2.08.

MKKGIIRFLLVSFVLFFALSTGITGVQYAPA displayed an AmyQ secretion efficiency of 4.56.

As for MHLIRAAGAVCLAVVLIAGCRKRRRQHQAEGENT, the AmyQ secretion efficiency came out at 6.76.

MRFTKNVVGFLSVLGLAAVFPLTAQAEKA registered an AmyQ secretion efficiency of 2.41.

On to MKLKSKLLLSCLALSTVFVATTIWNAPTH, for which the AmyQ secretion efficiency stood at 6.19.

Turning to MLTKRLLTIYIMLLGLILAWFPGAAQAEEK, the AmyQ secretion efficiency came out at 2.09.

Regarding MSLNKRVSMFLVALTMCGGLFVTPAKAVKT, the AmyQ secretion efficiency amounted to 2.92.

MKRLALGAALTIAPLSFASAEEN displayed an AmyQ secretion efficiency of 5.98.

The sequence MKKRRYFIVFICFFVLFSVHPIAAAAADS gave an AmyQ secretion efficiency of 3.35.

For the sequence MRSYIKVLTMCFLGLILFVPTALGDNS, the AmyQ secretion efficiency is 2.8.

For the sequence MKKKQVMLKRKKKKGLGLTALHSAPAAKAAPL, the AmyQ secretion efficiency is 8.05.

Sequence MRKFLKSNFRFLLAAALGISLLASSNFIKASND had an AmyQ secretion efficiency of 4.13.

On to MRRRTDYKKQVVGILLSLAFVLFVFSFSERHE, for which the AmyQ secretion efficiency stood at 6.74.

MRNLTKTSLLLAGLCTAAQMVFVTHTSAEES registered an AmyQ secretion efficiency of 3.23.

MKLSVKIAGVLTVAAAAMTAKMYTTAKGN registered an AmyQ secretion efficiency of 7.65.

In turn, MLKKKWMVGLLAGCLAAGGFSYNAFATKK registered an AmyQ secretion efficiency of 4.27.

In turn, MRSKKLWISLLFALTLIFTMAFSNMSAQPAGK came in with an AmyQ secretion efficiency of 3.56.

MKKIGLLFMLCLAALFTIGFPAQQADAAED yielded an AmyQ secretion efficiency of 2.02.

Regarding MKLWMRKTLVVLFTIVTFGLVSPPAALMTDKP, the AmyQ secretion efficiency is 2.85.

In turn, MKKVLMAFIICLSLILSVLAAPPSGAKAKRR yielded an AmyQ secretion efficiency of 2.43.

For MKKAFLVFLSVVLVTTVFLTSSFLVKQQESVAQAKQL, the AmyQ secretion efficiency was 4.08.

The sequence MKTKTLFIFSAILTLSIFAPNETFARRR showed an AmyQ secretion efficiency of 2.28.

MKVLLSALLLLLFAFEPSASCKKL came in with an AmyQ secretion efficiency of 4.65.

The sequence MKKQIITATTAVVLGSTLFAGAGSAQSI yielded an AmyQ secretion efficiency of 1.62.

For the sequence MKRLLSTLLIGIMLLTFAPSAFAAQQ, the AmyQ secretion efficiency amounted to 1.25.

In the case of MPYLKRVLLLLVTGLFMSLFAVTATASAEDD, the AmyQ secretion efficiency was 3.73.

In turn, MKKWIYVVLVLSIAGIGGFSDHAASS showed an AmyQ secretion efficiency of 6.49.

The sequence MKWCSICCAAVLLAGGAAQAEAV registered an AmyQ secretion efficiency of 3.57.

In turn, MPYLKRVLLLLVTGLFMSLFAVTATASDQTG displayed an AmyQ secretion efficiency of 1.01.

For the sequence MKRLLVSLRVWMPDRKTAAAAVY, the AmyQ secretion efficiency came out at 6.76.

The sequence MIKAAAVLLSLGLVFGFSYGAGHVAEAKTK yielded an AmyQ secretion efficiency of 2.3.

Regarding MTSSGGMFIVFICFFVLFSVHPIAAAAADS, the AmyQ secretion efficiency came to 6.41.

MNKKYFVLIVCIIFTSALFPTFSSITAAQG had an AmyQ secretion efficiency of 1.16.

Sequence MKRLFMKYKRYQKQVVFVFAVKGAPAKAETH returned an AmyQ secretion efficiency of 7.88.

For MTMLRKIIGWILLLCIIPLFAFTVIPSGKEV, the AmyQ secretion efficiency turned out to be 8.07.

MKFVKRRIIALVTILMLSVTSLFAKKRRRAKAAEH came in with an AmyQ secretion efficiency of 7.85.

On to MTKLKMLSMLTVMIASLFIFSSQGLAVQY, for which the AmyQ secretion efficiency was 2.52.

Consider MKIRKILLSSALSFGMLISAVPVLAAGT, for which the AmyQ secretion efficiency was found to be 3.66.

MKKRITYSLLALLAVVAFAFTDSSAAKAAEA registered an AmyQ secretion efficiency of 2.68.

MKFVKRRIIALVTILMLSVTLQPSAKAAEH had an AmyQ secretion efficiency of 3.15.

MGLGKKLSVAVAASFMSLSISLPGVQCAEG: the AmyQ secretion efficiency worked out at 2.75.

On to MRSYIKVLTMCFLGLILFVPTILADNS, for which the AmyQ secretion efficiency was found to be 2.6.

Turning to MNKFLKSNFRFLLAAALGISLLASSNFCKASND, the AmyQ secretion efficiency is 1.73.

In turn, MKKELLASLVLCLSLSPLVSTNEVFAAEE showed an AmyQ secretion efficiency of 2.07.

Take MKRSMLFILVLSFLSIIVAYPIQTNASPM: the AmyQ secretion efficiency came to 2.84.

MKRLLSTLLIGIMLLTFAPSAFAAQK yielded an AmyQ secretion efficiency of 1.73.

As for MRSYIKVLTMCFLGLILFVPTALTDNS, the AmyQ secretion efficiency is 5.81.

MKKMNFSSNSIIVMLATALFLGLTPAGANAADL gave an AmyQ secretion efficiency of 4.32.

The sequence MKLRKVRRRKKRSLGLLVSASPAFATSP came in with an AmyQ secretion efficiency of 8.72.

The sequence MRPVFPLILSAVLFLSCFFGARQTEASRSKR gave an AmyQ secretion efficiency of 2.45.

Turning to MKVLLSALLLLLFAEEDSASGKKL, the AmyQ secretion efficiency is 6.1.

The sequence MPIKKKVMMCTSGTTSFGSMSFPTLTNSGGFKE came in with an AmyQ secretion efficiency of 7.09.

Consider MRKKRAVLLSLIMLIAGFLISFSFQM, for which the AmyQ secretion efficiency amounted to 7.34.

Regarding MKLSVKIAGVLTVAAAAMTAKMYATFTGTFAATAKGN, the AmyQ secretion efficiency worked out at 7.49.

With MLKKKWMVGLLAGCLAAGTTSAAFTFFTGFSYNAFATEN, the AmyQ secretion efficiency was found to be 7.04.

MKKAAAVLLSLGLVFGFSYGAGHVQEAKTK: the AmyQ secretion efficiency turned out to be 7.17.

MKRIRIPMTLALGAALTIAPLSFASSEEN had an AmyQ secretion efficiency of 4.71.

MGSTWSLIVCLTALLSVLLVAGSVPFHAEAKKP came in with an AmyQ secretion efficiency of 4.11.

Turning to MRKNRILALFVLSLGLLSFMVTPSSTVSAASK, the AmyQ secretion efficiency amounted to 2.01.

Sequence MMKLLAAGIIGLLTVSIASPSFAAEK displayed an AmyQ secretion efficiency of 2.05.

In turn, MRFTKVVGFLSVLGLAAVFPLTAQAAPK displayed an AmyQ secretion efficiency of 1.91.

The sequence MKNMSCKYQQGVTLFFSFLTIGPLAHAQNS came in with an AmyQ secretion efficiency of 6.89.

As to MFKKHTISLLIIFLLASAVLAKPIEEHTV, the AmyQ secretion efficiency was found to be 5.81.

On to MLIRKRRNFKRFIAAFLVLALMISLVPADVLAKST, for which the AmyQ secretion efficiency was 1.85.

The sequence MKLAKRVSALTPSTTLAITAKRKEL came in with an AmyQ secretion efficiency of 8.52.

MLKFLKSNFRFLLAAALGISLLASSNFIKASND had an AmyQ secretion efficiency of 3.52.

As for MKLSVKIAGVLTVAAAAMTAKMYFFPAATAKGN, the AmyQ secretion efficiency turned out to be 6.16.

MLKKIALTLCPAIVGSLLFFTAPASEHVS showed an AmyQ secretion efficiency of 6.03.

The sequence MFKFKKNFLVGLSAALMSIKQFSATASAAST registered an AmyQ secretion efficiency of 5.73.
